Results reported in PMC12259648 (Frontiers in Immunology, 2025).

T1: Phl p 5.0101 (timothy grass)
T1 construct: Phl p 5.0101, major group 5 pollen allergen of timothy grass; The SPR methods say only 'Phl p 5 antigen'; also called major timothy grass pollen allergen Phl p 5; group 5 allergen; source: bought: Biomay, Vienna, Austria
T1 chain: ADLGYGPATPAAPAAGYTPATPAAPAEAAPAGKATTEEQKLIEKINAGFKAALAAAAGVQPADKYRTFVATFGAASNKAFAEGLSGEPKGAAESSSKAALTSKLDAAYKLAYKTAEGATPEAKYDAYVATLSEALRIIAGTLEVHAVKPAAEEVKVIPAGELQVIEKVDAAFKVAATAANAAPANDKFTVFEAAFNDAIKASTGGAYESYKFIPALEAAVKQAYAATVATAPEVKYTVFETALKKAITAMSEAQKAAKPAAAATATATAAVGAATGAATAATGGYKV


Molecular target: T1, Phl p 5.0101
Experiment: SPR; Biacore 1K+; purified IgG captured (about 100 RU) on anti-human IgG (Fc) on a CM5 chip; Phl p 5 injected at 1.875-60 nM, 25 uL/min, 120 s, 1360 s dissociation; PBS with 0.02% Tween 20; 1:1 Langmuir model
Details: both partners purified

Kd	koff	kon	Binder
19.6 nM	0.00262 s⁻¹	130000 M⁻¹ s⁻¹	212579 E38HS, G62HS (antibody, V domains shown, numbers count on: IMGT numbering; as the VL of m2; IgG1, kappa; also called E38HS G62HS substituted antibody; source: Expi293F, transfected, purified (Protein A magnetic beads)) VH: EVQLVESGGGLVQPGGSLRLSCAASGFTFSSYSMTWVRQAPGKGLEWISYISSSSSTIYYADSVKGRFTISRDNAKNSLYLQMNSLRAEDTAVYYCARDLRWGVMDNYYYHGMDVWGQGTTVTVSS VL: EIVLTQSPGTLSLSPGERATLSCRASQSISSSYLTWYQQKPGQAPRLLIYGASSRATGIPDRFSGSGSGTDFTLTISRLEPEDFAVYYCQQYVSSLITFGQGTRLEIK
8.5 nM	0.00051 s⁻¹	60000 M⁻¹ s⁻¹	inferred unmutated common ancestor (UCA) of antibody 212579 (antibody, V domains shown, equals the inferred UCA heavy chain variable domain (GenBank PV255645, PV255646 for the two chains); numbers count on: IMGT numbering; equals the inferred UCA light chain variable domain (GenBank PV255645, PV255646 for the two chains); IgG1, kappa; also called inferred UCA; source: Expi293F, transfected, purified (Protein A magnetic beads)) VH: EVQLVESGGGLVQPGGSLRLSCAASGFTFSSYEMNWVRQAPGKGLEWVSYISSSGSTIYYADSVKGRFTISRDNAKNSLYLQMNSLRAEDTAVYYCARDLRWGVMDNYYYYGMDVWGQGTTVTVSS VL: not shown
